Where a chain is given by its changes, count along the chain named.

Experiment [1] addresses T1, mouse FcγRII extracellular domain, C-terminally His-tagged (mouse, UniProt P08101 30-210).
T1 construct: the whole entry is named; also called mFcγRII; mFcgRII
T1 sequence: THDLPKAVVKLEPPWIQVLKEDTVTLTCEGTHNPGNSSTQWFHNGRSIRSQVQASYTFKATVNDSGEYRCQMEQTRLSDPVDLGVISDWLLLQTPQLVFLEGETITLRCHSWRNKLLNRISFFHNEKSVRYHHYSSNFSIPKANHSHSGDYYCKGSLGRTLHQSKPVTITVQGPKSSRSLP
The experiment can be described thus: SPR Biacore T200, KD ratio. The source says: (§1) The antibody H chain variable region used was the variable region H237 (SEQ ID NO: 1) of the H chain VH3-IgG1 of the anti-IL-6 receptor antibody Fv4-IgG1 described in WO2009/125825. The antibody L chain commonly used was the L chain MRAL-k0 (SEQ ID NO: 2) of the anti-IL-6 receptor antibody tocilizumab. […] The resulting variant groups were designated as MB397 variants and MB390 variants, respectively. These variants were expressed and purified by the method of Reference Example 1 and evaluated for their binding to mFcγRII and mFcγRIII by the method of Reference Example 2 using Biacore T200.
(§2) Each altered antibody was analyzed for its interaction with each Fcγ receptor prepared above using Biacore T100 (GE Healthcare Japan Corp.), Biacore T200 (GE Healthcare Japan Corp.), Biacore A100, or Biacore 4000. The running buffer used was HBS-EP+ (GE Healthcare Japan Corp.). The assay temperature was set to 25° C. The sensor chips used were chips prepared by immobilizing Protein L (ACTIGEN or BioVision) onto Series S Sensor Chip CM5 (GE Healthcare Japan Corp.) or Series S Sensor Chip CM4 (GE Healthcare Japan Corp.) by the amine coupling method.
(§3) In order to calculate the KD value of each altered antibody for FcγR, kinetic analysis was conducted according to the following method: first, the antibody of interest was captured onto any of these chips and allowed to interact with mFcγR diluted with a running buffer. For the obtained sensorgram, the assay results were globally fit into the 1:1 Langmuir binding model using Biacore Evaluation Software to calculate an association rate constant ka (L/mol/s) and a dissociation rate constant kd (1/s). From these values, the dissociation constant KD (mol/L) was calculated.
(Surface plasmon resonance follows binding to a sensor surface in real time, without labels.)

Experiment [2] has as its target T2, mouse FcγRIII extracellular domain, C-terminally His-tagged (mouse, UniProt P08508 31-215).
T2 construct: the whole entry is named; also called mFcγRIII; mFcgRIII
T2 chain: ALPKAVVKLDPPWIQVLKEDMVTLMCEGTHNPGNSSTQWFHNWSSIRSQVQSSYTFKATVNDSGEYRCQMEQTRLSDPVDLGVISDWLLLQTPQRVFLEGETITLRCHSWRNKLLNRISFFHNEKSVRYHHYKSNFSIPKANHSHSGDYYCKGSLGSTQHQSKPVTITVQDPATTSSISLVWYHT
The experiment can be described thus: SPR Biacore T200, KD ratio.
Description: as §1, §2, §3

B1: H237-MB443/MRAL-k0 (antibody, mouse IgG1, kappa)
heavy: QVQLQESGPGLVKPSETLSLTCAVSGHSISHDHAWSWVRQPPGEGLEWIGFISYSGITNYNPSLQGRVTISRDNSKNTLYLQMNSLRAEDTAVYYCARSLARTTAMDYWGEGTLVTVSSAKTTPPSVYPLAPGSAAQTNSMVTLGCLVKGYFPEPVTVTWNSGSLSSGVHTFPAVLQSDLYTLSSSVTVPSSTWPSETVTCNVAHPASSTKVDKKIVPRDCGCKPCICETYEVEDVFIFPPKPKDVLTITLTPKVTCVVVDISKDDPEVQFSWFVDDVEVHTAQTQPREEQENSTFRSVSELPIMHQDWLNGKEFKCRVNSAAFPAPIEKTISKTKGRPKAPQVYTIPPPKEQMAKDKVSLTCMITDFFPEDITVEWQWNGQPAENYKNTQPIMDTDGSYFVYSKLNVQKSNWEAGNTFTCSVLHEGLHNHHTEKSLSHSPGK
light: not shown
notes: copies: 2 + 2
With B1, in experiment [1], the “relative mFcγRII-binding activity (MB397 = 1)” value worked out at 0.44 fold and the “relative mFcγRII-binding activity (mIgG1 = 1)” value came to 243 fold. Also, in experiment [2], the “relative mFcγRIII-binding activity (MB397 = 1)” value was 0.79 fold and the “relative mFcγRIII-binding activity (mIgG1 = 1)” value stood at 15.3 fold.

B2: H237-MB449/MRAL-k0 (antibody, mouse IgG1, kappa)
heavy: B1 heavy with E292F, N320L
light: not shown
notes: copies: 2 + 2
As for B2, in experiment [1], the “relative mFcγRII-binding activity (MB397 = 1)” value is 0.28 fold and the “relative mFcγRII-binding activity (mIgG1 = 1)” value came to 154 fold. Further, in experiment [2], the “relative mFcγRIII-binding activity (MB397 = 1)” value was found to be 0.56 fold and the “relative mFcγRIII-binding activity (mIgG1 = 1)” value was found to be 10.7 fold.

B3: H237-MB444/MRAL-k0 (antibody, mouse IgG1, kappa)
heavy: B1 heavy with E292N
light: not shown
notes: copies: 2 + 2
As for B3, in experiment [1], the “relative mFcγRII-binding activity (MB397 = 1)” value came out at 0.42 fold and the “relative mFcγRII-binding activity (mIgG1 = 1)” value turned out to be 231 fold. Moreover, in experiment [2], the “relative mFcγRIII-binding activity (MB397 = 1)” value worked out at 0.67 fold and the “relative mFcγRIII-binding activity (mIgG1 = 1)” value is 12.9 fold.

B4: H237-MB445/MRAL-k0 (antibody, mouse IgG1, kappa)
heavy: B1 heavy with E292T
light: not shown
notes: copies: 2 + 2
Regarding B4, in experiment [1], the “relative mFcγRII-binding activity (MB397 = 1)” value is 0.4 fold and the “relative mFcγRII-binding activity (mIgG1 = 1)” value is 220 fold. For the same molecule, in experiment [2], the “relative mFcγRIII-binding activity (MB397 = 1)” value was found to be 0.68 fold and the “relative mFcγRIII-binding activity (mIgG1 = 1)” value stood at 13.2 fold.

B5: H237-MB447/MRAL-k0 (antibody, mouse IgG1, kappa)
heavy: B1 heavy with E292F, S294M
light: not shown
notes: copies: 2 + 2
In the case of B5, in experiment [1], the “relative mFcγRII-binding activity (MB397 = 1)” value is 1.1 fold and the “relative mFcγRII-binding activity (mIgG1 = 1)” value is 608 fold. Moreover, in experiment [2], the “relative mFcγRIII-binding activity (MB397 = 1)” value was 1.63 fold and the “relative mFcγRIII-binding activity (mIgG1 = 1)” value came to 31.4 fold.

B6: H237-MB446/MRAL-k0 (antibody, mouse IgG1, kappa)
heavy: B1 heavy with E292F, S294L
light: not shown
notes: copies: 2 + 2
For B6, in experiment [1], the “relative mFcγRII-binding activity (MB397 = 1)” value was found to be 2.45 fold and the “relative mFcγRII-binding activity (mIgG1 = 1)” value came out at 1360 fold. Also, in experiment [2], the “relative mFcγRIII-binding activity (MB397 = 1)” value was 3.3 fold and the “relative mFcγRIII-binding activity (mIgG1 = 1)” value was determined as 63.7 fold.

B7: H237-MB448/MRAL-k0 (antibody, mouse IgG1, kappa)
heavy: B1 heavy with E292F, N320D
light: not shown
notes: copies: 2 + 2
Take B7: in experiment [1], the “relative mFcγRII-binding activity (MB397 = 1)” value is 0.95 fold and the “relative mFcγRII-binding activity (mIgG1 = 1)” value is 525 fold. Moreover, in experiment [2], the “relative mFcγRIII-binding activity (MB397 = 1)” value worked out at 1.3 fold and the “relative mFcγRIII-binding activity (mIgG1 = 1)” value is 25.1 fold.

B8: H237-MB451/MRAL-k0 (antibody, mouse IgG1, kappa)
heavy: B1 heavy with E292F, A326G
light: not shown
notes: copies: 2 + 2
Take B8: in experiment [1], the “relative mFcγRII-binding activity (MB397 = 1)” value was determined as 0.11 fold and the “relative mFcγRII-binding activity (mIgG1 = 1)” value amounted to 60.1 fold. For the same molecule, in experiment [2], the “relative mFcγRIII-binding activity (MB397 = 1)” value was determined as 0.5 fold and the “relative mFcγRIII-binding activity (mIgG1 = 1)” value stood at 9.7 fold.

B9: H237-MB450/MRAL-k0 (antibody, mouse IgG1, kappa)
heavy: B1 heavy with E292F, N320M
light: not shown
notes: copies: 2 + 2
For B9, in experiment [1], the “relative mFcγRII-binding activity (MB397 = 1)” value worked out at 0.68 fold and the “relative mFcγRII-binding activity (mIgG1 = 1)” value came to 377 fold. Also, in experiment [2], the “relative mFcγRIII-binding activity (MB397 = 1)” value was 1.18 fold and the “relative mFcγRIII-binding activity (mIgG1 = 1)” value was 22.7 fold.
